Measured values reported in PMC13618070 (RNA (New York, N.Y.), 2025).

B1: RDE-4 dsRBM1 and dsRBM2 point mutant R1^AAR2^AAR3 (K89A/K90A/K217A/K218A) (natural protein, C. elegans, UniProt G5EBF5 1-385, looked up)
chain: MDLTKLTFESVFGGSDVPMKPSRSEDNKTPRNRTDLEMFLKKTPLMVLEEAAKAVYQKTPTWGTVELPEGFEMTLILNEITVKGQATSAAAARQKAAVEYLRKVVEKGKHEIFFIPGTTKEEALSNIDQISDKAEELKRSTSDAVQDNDNDDSIPTSAEFPPGISPTENWVGKLQEKSQKSKLQAPIYEDSKNERTERFLVICTMCNQKTRGIRSKAADAKNLAAWLMWKALEDGIESLESYDMVDVIENLEEAEHLLEIQDQASKIKDKHSALIDILSDKKRFSDYSMDFNVLSVSTMGIHQVLLEISFRRLVSPDPDDLEMGAEHTQTEEIMKATAEKEKLRKKNMPDSGPLVFAGHGSSAEEAKQCACKSAIIHFNTYDFTD
B2: RDE-4 dsRBM1 point mutant R1^AAR2R3 (K89A/K90A) (natural protein, C. elegans, UniProt G5EBF5 1-385, looked up)
chain: MDLTKLTFESVFGGSDVPMKPSRSEDNKTPRNRTDLEMFLKKTPLMVLEEAAKAVYQKTPTWGTVELPEGFEMTLILNEITVKGQATSAAAARQKAAVEYLRKVVEKGKHEIFFIPGTTKEEALSNIDQISDKAEELKRSTSDAVQDNDNDDSIPTSAEFPPGISPTENWVGKLQEKSQKSKLQAPIYEDSKNERTERFLVICTMCNQKTRGIRSKKKDAKNLAAWLMWKALEDGIESLESYDMVDVIENLEEAEHLLEIQDQASKIKDKHSALIDILSDKKRFSDYSMDFNVLSVSTMGIHQVLLEISFRRLVSPDPDDLEMGAEHTQTEEIMKATAEKEKLRKKNMPDSGPLVFAGHGSSAEEAKQCACKSAIIHFNTYDFTD
B3: RDE-4 dsRBM2 point mutant R1R2^AAR3 (K217A/K218A) (natural protein, C. elegans, UniProt G5EBF5 1-385, looked up)
chain: MDLTKLTFESVFGGSDVPMKPSRSEDNKTPRNRTDLEMFLKKTPLMVLEEAAKAVYQKTPTWGTVELPEGFEMTLILNEITVKGQATSKKAARQKAAVEYLRKVVEKGKHEIFFIPGTTKEEALSNIDQISDKAEELKRSTSDAVQDNDNDDSIPTSAEFPPGISPTENWVGKLQEKSQKSKLQAPIYEDSKNERTERFLVICTMCNQKTRGIRSKAADAKNLAAWLMWKALEDGIESLESYDMVDVIENLEEAEHLLEIQDQASKIKDKHSALIDILSDKKRFSDYSMDFNVLSVSTMGIHQVLLEISFRRLVSPDPDDLEMGAEHTQTEEIMKATAEKEKLRKKNMPDSGPLVFAGHGSSAEEAKQCACKSAIIHFNTYDFTD
B4: RDE-4 truncation R3 (dsRBM3 only, begins with M244) (domain or fragment, C. elegans, UniProt G5EBF5 244-385, looked up)
chain: MVDVIENLEEAEHLLEIQDQASKIKDKHSALIDILSDKKRFSDYSMDFNVLSVSTMGIHQVLLEISFRRLVSPDPDDLEMGAEHTQTEEIMKATAEKEKLRKKNMPDSGPLVFAGHGSSAEEAKQCACKSAIIHFNTYDFTD

Each binder was assayed against DCR-1•DRH-1 complex (DCR-1•(OSF)DRH-1) (C. elegans, UniProt P34529 1-1910; G5EDI8 1-1037) (assay: pull-down).
B1 was tested, and the “percent recovery normalized to WT RDE-4” value was over 100%. In the case of B2, the “percent recovery normalized to WT RDE-4” value is reported as over 100%. In the case of B3, the “percent recovery normalized to WT RDE-4” value is reported as over 100%. For B4, the “percent recovery normalized to WT RDE-4” value was about 72%.
